Experimental data from the supplement of paper PMC10567573.

B1: WEE1 (parent)
chain: INPFTPDSLLLHSSGQCRRRKRTY

Variants of: B1
Test: protein stability index of a GFP-peptide fusion (GPS, HEK-293T) (PSI 1-6); higher = more stable
Details: c terminus: a fixed tail appended
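Also: lentivirally expressed fusions sorted by FACS into six bins by GFP to DsRed ratio, PSI derived from sequencing read proportions per bin multiplied by bin number.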

Protein stability index, by site and new letter:
H12: S 3.87; E 4.06; N 3.19; F 3.03; Q 2.94; Y 2.89; W 2.19; R 3.59; C 2.57; K 3.54; P 3.4; M 3.32; L 2.86
R19: S 3.78; L 3.03; N 3.38; D 3.52; A 3.08; H 3.32; V 2.69; E 3.8; I 3.88; T 2.78; C 3.01; Y 2.83; K 3.32
L10: G 3.83; N 3.85; Y 2.89; D 3.9; T 4.03; A 3.96; V 3.81; Q 3.5; R 3.76; W 3.43; S 3.88; H 4.01; M 3.38
G15: T 3.21; Y 2.9; W 2.54; I 2.92; R 4.12; C 2.26; K 3.85; P 3.05; E 3.41; S 3.02; N 3.89; D 3.39; L 3.56; A 3.71; F 1.99; V 2.79
S8: W 3.5; P 2.77; F 2.5; R 2.71; V 3.25; H 3.83; N 3.75; C 2.73; Q 3.73; D 4; T 2.81; A 3.42; L 2.82; M 2.75; I 2.6
L9: Q 3.68; R 3.74; M 3.35; H 4.06; V 3.76; P 3.96; W 3.32; T 3.67; C 3.35; K 3.42; E 3.96; N 3.83; S 4.06; Y 2.63; F 2.94; I 3.25
D7: Y 3.27; W 3.99; H 2.69; T 3.51; N 2.41; G 2.24; F 2.12; P 3.09; A 3.13; K 3.31; C 2.46; Q 3.52; I 2.55
P3: D 3.33; K 3.1; V 2.71; A 3.21; W 1.3; N 3.12; H 3.93; G 3.11; T 3.06; C 3.41; I 2.69; S 3.51; E 3.44; L 2.61
T5: D 4.01; S 3.23; W 2.51; F 2.67; V 3.71; E 3.98; G 3.76; Q 3.78; L 3.04; Y 2.93; N 3.24; C 2.87
K21: V 3.16; D 2.9; A 3.77; I 3; Y 2.48; H 3.38; E 3.16; W 2.4; S 3.18; Q 2.46; C 2.02; G 3.58; L 2.72; R 3.11; F 2.42; T 2.83; M 3.25
Q16: K 3.69; V 2.97; G 3.5; C 2.8; F 2.65; L 2.81; Y 3.52; P 3.92; E 3.69; T 3.41; W 2.51; S 3.61; A 3.31; I 3.56
P6: I 2.79; H 3.18; L 2.06; V 2.07; F 2.64; A 4; K 3.26; C 3.04; N 4.07; T 3.2; R 3.02
